In patent publication US20240206509A1 (CLARA FOODS, published 2024):

Molecular target: bovine trypsin (bovine, UniProt P00760 24-246)
Test: cell-based or functional assay

Chain of bovine trypsin (P00760 24-246): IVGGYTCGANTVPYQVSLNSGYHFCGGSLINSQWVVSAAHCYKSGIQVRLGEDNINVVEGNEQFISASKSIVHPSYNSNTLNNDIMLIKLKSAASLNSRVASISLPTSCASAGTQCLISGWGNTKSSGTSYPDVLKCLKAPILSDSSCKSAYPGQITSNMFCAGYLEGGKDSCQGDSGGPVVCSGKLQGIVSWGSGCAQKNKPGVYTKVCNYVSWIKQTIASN

Trypsin inhibition activity: 13700 TIU/g
B1: native chicken ovomucoid (nOVD) (other)
chain: AEVDCSRFPNATDKEGKDVLVCNKDLRPICGTDGVTYTNDCLLCAYSIEFGTNISKEHDGECKETVPMNCSSYANTTSEDGKVMVLCNRAFNPVCGTDGVTYDNECLLCAHKVEQGASVDKRHDGGCRKELAAVSVDCSEYPKPDCTAEDRPLCGSDNKTYGNKCNFCNAVVESNGTLTLSHFGKC
modifications: complex branched N-linked glycosylation (that includes mannose), as in chicken egg white
